Source: patent publication US20090117126A1 (UCB, published 2009)

T1: recombinant human IL-17 (human, UniProt Q16552 20-155, limits assumed)
T1 sequence (looked up): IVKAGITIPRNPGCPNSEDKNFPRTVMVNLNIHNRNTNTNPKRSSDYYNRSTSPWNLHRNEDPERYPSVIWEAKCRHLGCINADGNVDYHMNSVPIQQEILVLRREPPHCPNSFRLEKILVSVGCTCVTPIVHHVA


Experiments:
recombinant human IL-17 [1] = molecular target: T1, recombinant human IL-17; assay: cell-based or functional assay
recombinant human IL-17 [2] = molecular target: T1, recombinant human IL-17; assay: BIAcore 3000; mean of the five replicates of Table 1; mean of the replicates of Table 1; CDP435 captured by anti-human IgG F(ab)2, IL-17 in solution
Description: The assay format used CDP435 captured by anti-human IgG F(ab)₂ with a titration of recombinant human IL-17 in the solution phase. BIA (Biamolecular Interaction Analysis) was performed using a BIAcore 3000 (BIAcore AB). Affinipure F(ab′)₂ Fragment goat anti-human IgG, F(ab)₂ fragment specific (Jackson ImmunoResearch) was immobilised on a CM5 Sensor Chip via amine coupling chemistry to a capture level of ≈9000 response units (RUs). HBS-EP buffer (10 mM HEPES pH 7.4, 0.15 M NaCl, 3 mM EDTA, 0.005% Surfactant P20, BIAcore AB) was used as the running buffer with a flow rate of 10 μl/min. An injection of CDP435 was made at 10 μl/min in order to obtain around 200 Ru of Fab captured by the immobilised anti-human IgG-F(ab)₂ to the surface. Human IL-17 was titrated over the captured antibody Fab fragment at various concentrations at a flow rate of 30 μl/min. The surface was regenerated by a 2×10 μl injection of 40 mM HCl, followed by a 5 μl injection of 5 mM NaOH at a flow rate of 10 μl/min.
Background subtraction binding curves were analysed using the BIAevaluation software (version 3.2) following standard procedures. Kinetic parameters were determined from the fitting algorithm. The affinity was measured at human IL-17 concentrations at or below 12.5 nM.

monkey recombinant IL-17 = monkey recombinant IL-17 (monkey); assay: cell-based or functional assay
recombinant human IL-17 [3] = molecular target: T1, recombinant human IL-17; assay: cell-based or functional assay; remark: listed apart in the source

| Binder | IC50 (read off the curve) (recombinant human IL-17 [1]) [µg/mL] | Kd (recombinant human IL-17 [2]) [nM] | IC50, monkey IL-17 (25 ng/ml) induced IL-6 production from Hela cells (monkey recombinant IL-17) [µg/mL] | IC50, human IL-17 (25 ng/ml) induced IL-6 production from Hela cells (recombinant human IL-17 [3]) [µg/mL] |
| --- | --- | --- | --- | --- |
| murine monoclonal antibody IL-17F4.100 (antibody, V domains shown) VH: QVQLKESGPGLVAPSQSLSITCTVSGFSLTTYGVHWIRQPPGKGLEWLVVIWSDGYTTYNSALKSRLSITKDNSKSQVFLKMNSLQTDDTAMYYCARNDGDYFYSMDYWGQGTSVTVSS VL: DVVMTQTPLSLPVSLGDQASFSCRSSQSLVHSNGNTYLHWYLQKPGQSPKLLIYKVSNRFSGVPDRFSGSGSGTDFTLKISRVEAEDLGVYFCSQSTHVPTFGGGTKLEIKR | ~0.2 |  |  |  |
| CDP435 (PEGylated Fab fragment, gH11gL3 graft, 2 x 20 kDa PEG) (Fab, V domains shown, 20 kDa PEG-maleimide on the interchain cysteine of CL (position 214 by Kabat numbering, 218 by sequential numbering); 20 kDa PEG-maleimide on the interchain cysteine of CH1 (cys-233 by Kabat numbering, cys-222 by sequential numbering; C-terminal residue), no interchain disulphide after PEGylation) VH: EVQLVESGGGVVQPGGSLRLSCAVSGFSLTTYGVHWVRQAPGKGLEWVAVIWSDGYTTYNSALKSRFTISRDNSKNTVYLQMNSLRAEDTAVYYCARNDGDYFYSMDYWGQGTLVTVSS VL: DVQMTQSPSSLSASVGDRVTITCRSSQSLVHSNGNTYLHWYQQKPGKAPKLLIYKVSNRFSGVPSRFSGSGSGTDFTLTISSLQPEDFATYYCSQSTHVPTFGQGTKVEIKR |  | 0.224 | 0.147 | 0.158 |
| antibody Fab fragment of CDP435 (not PEGylated) (Fab, V domains shown) VH: EVQLVESGGGVVQPGGSLRLSCAVSGFSLTTYGVHWVRQAPGKGLEWVAVIWSDGYTTYNSALKSRFTISRDNSKNTVYLQMNSLRAEDTAVYYCARNDGDYFYSMDYWGQGTLVTVSS VL: DVQMTQSPSSLSASVGDRVTITCRSSQSLVHSNGNTYLHWYQQKPGKAPKLLIYKVSNRFSGVPSRFSGSGSGTDFTLTISSLQPEDFATYYCSQSTHVPTFGQGTKVEIKR | ~0.2 |  |  |  |
